# Results taken from paper PMC2098691, “Regulation of the Xenopus Xsox17α1 promoter by co-operating VegT and Sox17 sites”.
# Where a chain is given by its changes, count along the chain named.
# T1: VegT (Xenopus, UniProt P87377 1-455)
# T1 sequence: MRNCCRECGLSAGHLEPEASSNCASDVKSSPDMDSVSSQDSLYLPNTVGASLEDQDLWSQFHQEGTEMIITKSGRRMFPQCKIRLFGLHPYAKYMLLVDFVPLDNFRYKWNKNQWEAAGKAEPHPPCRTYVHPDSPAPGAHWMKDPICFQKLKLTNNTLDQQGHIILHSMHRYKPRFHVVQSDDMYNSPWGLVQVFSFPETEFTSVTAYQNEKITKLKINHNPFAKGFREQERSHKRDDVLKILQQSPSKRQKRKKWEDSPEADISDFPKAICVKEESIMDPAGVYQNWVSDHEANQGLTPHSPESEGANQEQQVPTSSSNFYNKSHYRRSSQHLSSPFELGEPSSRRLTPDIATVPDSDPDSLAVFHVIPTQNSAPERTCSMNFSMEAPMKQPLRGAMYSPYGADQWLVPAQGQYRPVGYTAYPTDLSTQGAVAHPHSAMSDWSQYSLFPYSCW
# B1: B1 T-box mutant (dsDNA)
# DNA 1: TCTCCAGAGTACGCACATTCATTGTTTGTTA
# DNA 2: TAACAAACAATGAATGTGCGTACTCTGGAGA
# B2: B1 T-box probe (dsDNA)
# DNA 1: TGTCCAGAGTTCACACCATCATTGTTTGTTA
# DNA 2: TAACAAACAATGATGGTGTGAACTCTGGACA
# B3: T-box consensus (Derrière) (dsDNA)
# DNA 1: B2 DNA 1 with G2C, A18T
# DNA 2: B2 DNA 2 with T14A, C30G
# Biological target: T1, VegT
# Experiment: EMSA; poly(dI.dC); 15 µl with 3 µl MDB buffer (20 mM HEPES pH 7.9, 100 mM KCl, 12.5 mM MgCl2, 0.1 mM EDTA, 17% glycerol, 2 mM DTT (printed DDT)), 2 µg poly(dI.dC), 1 µl IVT protein, 10 min + 10 min (preincubation at 30 °C); 15% gel at 4 °C; 50-fold competitor in controls
# Conditions: label: 5' 32P (forward strand), blunt
row,Binder,binding result
1,B1,no binding
2,B2,binds
3,B3,binds
